B1: porcine kidney DP IV, wild type (protein)
chain: DSRRTYTLTDYLKSTFRVKFYTLQWISDHEYLYKQENNILLFNAEYGNSSIFLENSTFDELGYSTNDYSVSPDRQFILFEYNYVKQWRHSYTASYDIYDLNKRQLITEERIPNNTQWITWSPVGHKLAYVWNNDIYVKNEPNLSSQRITWTGKENVIYNGVTDWVYEEEVFSAYSALWWSPNGTFLAYAQFNDTEVPLIEYSFYSDESLQYPKTVRIPYPKAGAENPTVKFFVVDTRTLSPNASVTSYQIVPPASVLIGDHYLCGVTWVTEERISLQWIRRAQNYSIIDICDYDESTGRWISSVARQHIEISTTGWVGRFRPAEPHFTSDGNSFYKIISNEEGYKHICHFQTDKSNCTFITKGAWEVIGIEALTSDYLYYISNEHKGMPGGRNLYRIQLNDYTKVTCLSCELNPERCQYYSASFSNKAKYYQLRCFGPGLPLYTLHSSSSDKELRVLEDNSALDKMLQDVQMPSKKLDVINLHGTKFWYQMILPPHFDKSKKYPLLIEVYAGPCSQKVDTVFRLSWATYLASTENIIVASFDGRGSGYQGDKIMHAINRRLGTFEVEDQIEATRQFSKMGFVDDKRIAIWGWSYGGYVTSMVLGAGSGVFKCGIAVAPVSKWEYYDSVYTERYMGLPTPEDNLDYYRNSTVMSRAENFKQVEYLLIHGTADDNVHFQQSAQLSKALVDAGVDFQTMWYTDEDHGIASNMAHQHIYTHMSHFLKQCFSLP
B2: DP IV activity of the human serum (protein)
chain: SRKTYTLTDYLKNTYRLKLYSLRWISDHEYLYKQENNILVFNAEYGNSSVFLENSTFDEFGHSINDYSISPDGQFILLEYNYVKQWRHSYTASYDIYDLNKRQLITEERIPNNTQWVTWSPVGHKLAYVWNNDIYVKIEPNLPSYRITWTGKEDIIYNGITDWVYEEEVFSAYSALWWSPNGTFLAYAQFNDTEVPLIEYSFYSDESLQYPKTVRVPYPKAGAVNPTVKFFVVNTDSLSSVTNATSIQITAPASMLIGDHYLCDVTWATQERISLQWLRRIQNYSVMDICDYDESSGRWNCLVARQHIEMSTTGWVGRFRPSEPHFTLDGNSFYKIISNEEGYRHICYFQIDKKDCTFITKGTWEVIGIEALTSDYLYYISNEYKGMPGGRNLYKIQLSDYTKVTCLSCELNPERCQYYSVSFSKEAKYYQLRCSGPGLPLYTLHSSVNDKGLRVLEDNSALDKMLQNVQMPSKKLDFIILNETKFWYQMILPPHFDKSKKYPLLLDVYAGPCSQKADTVFRLNWATYLASTENIIVASFDGRGSGYQGDKIMHAINRRLGTFEVEDQIEAARQFSKMGFVDNKRIAIWGWSYGGYVTSMVLGSGSGVFKCGIAVAPVSRWEYYDSVYTERYMGLPTPEDNLDHYRNSTVMSRAENFKQVEYLLIHGTADDNVHFQQSAQISKALVDVGVDFQAMWYTDEDHGIASSTAHQHIYTHMSHFIKQCFSLP

Biological target: peptides of the growth hormone releasing factor (GRF) family

Row | Protein | hydrolysis (MALDI-TOF MS, capillary zone electrophoresis)
1 | B1 | All peptides were hydrolyzed by porcine DP IV, recombinant human DP IV or DP IV activity of the human serum
2 | B2 | All peptides were hydrolyzed by porcine DP IV, recombinant human DP IV or DP IV activity of the human serum
